Test results published in patent US20140087995A1 (published 2014).
Numbered stars: 1 amine (or outer) side, 2 acyl side, 3 side chain; on linkers, the order of the positions; unused ones are H or OH. Bridge positions count the residues as written; N and C are the ends. Side chains are listed from the residue outwards. Ends that are not written are not given here. * marks the point of attachment. C20 diacid = O=C(O)CCCCCCCCCCCCCCCCCCC(=O)*; γGlu = O=C(O)[C@H](CCC(=O)[*:2])N[*:1]; C14 diacid = O=C(O)CCCCCCCCCCCCC(=O)*

T1: human calcitonin receptor (human, UniProt P30988 25-474)
T1 construct: whole, on cells; Used as cell membranes; also called hCTR; hCT
T1 sequence (looked up): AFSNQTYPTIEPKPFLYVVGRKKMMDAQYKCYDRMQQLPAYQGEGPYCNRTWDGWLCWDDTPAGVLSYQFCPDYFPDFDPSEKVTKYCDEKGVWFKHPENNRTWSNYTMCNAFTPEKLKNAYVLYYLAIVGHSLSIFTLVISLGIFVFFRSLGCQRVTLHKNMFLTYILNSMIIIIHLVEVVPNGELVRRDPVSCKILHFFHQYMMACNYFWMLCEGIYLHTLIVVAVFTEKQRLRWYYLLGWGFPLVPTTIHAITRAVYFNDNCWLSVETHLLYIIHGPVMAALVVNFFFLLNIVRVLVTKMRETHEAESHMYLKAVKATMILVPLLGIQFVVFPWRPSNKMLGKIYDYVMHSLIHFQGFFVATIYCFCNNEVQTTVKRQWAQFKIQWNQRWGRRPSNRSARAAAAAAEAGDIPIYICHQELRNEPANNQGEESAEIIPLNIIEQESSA

T2: human amylin receptor (amylin 3(a) receptor: human calcitonin receptor with RAMP-3) (human, UniProt P30988 25-474; O60896 24-148)
T2 construct: whole, on cells; Used as cell membranes of the Amylin 3(a)/CRE-luc BHK cells; the species of RAMP-3 is only implied by the name human amylin receptor; also called hAmylin-R; hAmylinR
T2 sequence (looked up) 1: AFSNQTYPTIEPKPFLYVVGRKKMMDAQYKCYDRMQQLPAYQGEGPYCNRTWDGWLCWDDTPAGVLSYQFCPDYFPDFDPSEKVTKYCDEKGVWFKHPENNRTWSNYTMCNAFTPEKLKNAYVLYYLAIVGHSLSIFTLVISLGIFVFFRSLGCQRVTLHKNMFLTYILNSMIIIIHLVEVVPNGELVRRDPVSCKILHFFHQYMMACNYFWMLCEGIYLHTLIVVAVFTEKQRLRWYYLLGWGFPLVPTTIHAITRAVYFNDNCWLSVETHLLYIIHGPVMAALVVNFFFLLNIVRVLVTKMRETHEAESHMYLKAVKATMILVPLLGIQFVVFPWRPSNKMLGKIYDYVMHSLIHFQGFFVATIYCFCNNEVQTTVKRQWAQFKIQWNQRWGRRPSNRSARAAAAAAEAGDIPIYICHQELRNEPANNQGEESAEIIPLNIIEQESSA
T2 sequence (looked up) 2: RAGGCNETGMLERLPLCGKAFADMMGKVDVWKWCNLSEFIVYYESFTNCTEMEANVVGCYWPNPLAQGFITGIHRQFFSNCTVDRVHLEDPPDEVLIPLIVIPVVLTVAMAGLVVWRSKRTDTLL


How the values were obtained:
[1] = target: T1, human calcitonin receptor; assay: ratio of hCTR IC50 to hAmylin-R IC50 (reference: human amylin receptor)
In short: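 Scintillation proximity competition binding on cell membranes at 35 ng/μL with SPA beads, in 50 mM Hepes pH 7.4, 1 mM CaCl2, 5 mM MgCl₂, 0.1% OA, 0.02% Tween20. Incubated 120 min at 25° C with shaking. IC₅₀ from one-site competition fit.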

[2] = target: T2, human amylin receptor (amylin 3(a) …); assay: SPA competition on BHK cell membranes, 125I-rat amylin as radioligand (Assay V)
Protocol: The binding assay was performed using scintillation proximity assay (SPA) beads (RPNQ0001) from PerkinElmer and cell membranes from the Amylin 3(a)/CRE-luc cells (as described in Assay (II)) were used. Membranes were prepared in the following way; the cells were rinsed with PBS and incubated with Versene for approximately 5 min before harvesting. The cells were flushed with PBS and the cell-suspension was centrifuged for 5 min at 1000 rpm. Cells were homogenized (ultrathurrax) in a buffer containing 20 mM Na-HEPES and 10 mM EDTA (pH 7.4) and centrifuged at 20.000 rpm for 15 min. The resulting pellet was resuspended, homogenized and centrifuged (20.000 rpm, 15 min) in a buffer containing 20 mM Na-HEPES and 0.1 mM EDTA (pH 7.4, buffer 2). The resulting pellet was resuspended in buffer 2 and protein concentration was measured (BCA protein Assay, Pierce). The homogenate was kept cold during the whole procedure. The membranes were kept at −80° C. until use. The assay was performed in a 384 well Optiplate (PerkinElmer) in a total volume of 40 ul. Membranes were mixed with SPA beads. Final concentration of membranes 35 ng/μL final and SPA beads was 0.05 mg/well. Test-compounds were dissolved in DMSO and further diluted in assay buffer (50 mM Hepes, pH 7.4, 1 mM CaCl2, 5 mM MgCl₂, 0.1% OA and 0.02% Tween20). […] The final mixture was incubated with shaking at 400 rpm for 120 min at 25° C. prior to centrifugation (1500 rpm, 10 min). Samples were analyzed on TopCounter™ (Packard). The IC₅₀ was calculated using (one site binding competition analysis) GraphPad Prism5 as a measure of receptor affinity.

[3] = target: T1, human calcitonin receptor; assay: SPA competition on BHK cell membranes, 125I-calcitonin as radioligand (Assay VII)
In short: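 BHK hCTR membranes 35 ng/μL + SPA beads 0.05 mg/well; buffer 50 mM Hepes pH 7.4, 1 mM CaCl2, 5 mM MgCl₂, 0.1% OA, 0.02% Tween20. 120 min, 25° C., shaking. Scintillation count; IC50 by one-site binding competition.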

Binder | Ratio hCT/hAmylin binding [1] | IC50 [2] | IC50 [3]
K([γGlu-C20 diacid])CNTATCATQRLAHFLRHSSPNFGAIPSSTNVGRNTY-NH2 (disulfide 2-7; N-terminus assumed; SMILES CC[C@H](C)[C@H](NC(=O)[C@H](C)NC(=O)CNC(=O)[C@H](Cc1ccccc1)NC(=O)[C@H](CC(N)=O)NC(=O)[C@@H]1CCCN1C(=O)[C@H](CO)NC(=O)[C@H](CO)NC(=O)[C@H](Cc1c[nH]cn1)NC(=O)[C@H](CCCNC(=N)N)NC(=O)[C@H](CC(C)C)NC(=O)[C@H](Cc1ccccc1)NC(=O)[C@H](Cc1c[nH]cn1)NC(=O)[C@H](C)NC(=O)[C@H](CC(C)C)NC(=O)[C@H](CCCNC(=N)N)NC(=O)[C@H](CCC(N)=O)NC(=O)[C@@H](NC(=O)[C@H](C)NC(=O)[C@@H]1CSSC[C@H](NC(=O)[C@@H](N)CCCCNC(=O)CC[C@H](NC(=O)CCCCCCCCCCCCCCCCCCC(=O)O)C(=O)O)C(=O)N[C@@H](CC(N)=O)C(=O)N[C@@H]([C@@H](C)O)C(=O)N[C@@H](C)C(=O)N[C@@H]([C@@H](C)O)C(=O)N1)[C@@H](C)O)C(=O)N1CCC[C@H]1C(=O)N[C@@H](CO)C(=O)N[C@@H](CO)C(=O)N[C@H](C(=O)N[C@@H](CC(N)=O)C(=O)N[C@H](C(=O)NCC(=O)N[C@@H](CCCNC(=N)N)C(=O)N[C@@H](CC(N)=O)C(=O)N[C@H](C(=O)N[C@@H](Cc1ccc(O)cc1)C(N)=O)[C@@H](C)O)C(C)C)[C@@H](C)O, also called compound 85) | 91.8 | 0.876 nM | 80.4 nM
K([γGlu-γGlu-C20 diacid])CNTATCATQRLAEFLRHSSPNFGAIPSSTNVGSRTY-NH2 (disulfide 2-7; N-terminus assumed; SMILES CC[C@H](C)[C@H](NC(=O)[C@H](C)NC(=O)CNC(=O)[C@H](Cc1ccccc1)NC(=O)[C@H](CC(N)=O)NC(=O)[C@@H]1CCCN1C(=O)[C@H](CO)NC(=O)[C@H](CO)NC(=O)[C@H](Cc1c[nH]cn1)NC(=O)[C@H](CCCNC(=N)N)NC(=O)[C@H](CC(C)C)NC(=O)[C@H](Cc1ccccc1)NC(=O)[C@H](CCC(=O)O)NC(=O)[C@H](C)NC(=O)[C@H](CC(C)C)NC(=O)[C@H](CCCNC(=N)N)NC(=O)[C@H](CCC(N)=O)NC(=O)[C@@H](NC(=O)[C@H](C)NC(=O)[C@@H]1CSSC[C@H](NC(=O)[C@@H](N)CCCCNC(=O)CC[C@H](NC(=O)CC[C@H](NC(=O)CCCCCCCCCCCCCCCCCCC(=O)O)C(=O)O)C(=O)O)C(=O)N[C@@H](CC(N)=O)C(=O)N[C@@H]([C@@H](C)O)C(=O)N[C@@H](C)C(=O)N[C@@H]([C@@H](C)O)C(=O)N1)[C@@H](C)O)C(=O)N1CCC[C@H]1C(=O)N[C@@H](CO)C(=O)N[C@@H](CO)C(=O)N[C@H](C(=O)N[C@@H](CC(N)=O)C(=O)N[C@H](C(=O)NCC(=O)N[C@@H](CO)C(=O)N[C@@H](CCCNC(=N)N)C(=O)N[C@H](C(=O)N[C@@H](Cc1ccc(O)cc1)C(N)=O)[C@@H](C)O)C(C)C)[C@@H](C)O, also called compound 89) | 28 | 1.16 nM | 32.5 nM
K([γGlu-γGlu-C20 diacid])CNTATCATQRLANFLRHSSPNFGAIPSSTNVGHNTY-NH2 (disulfide 2-7; N-terminus assumed; SMILES CC[C@H](C)[C@H](NC(=O)[C@H](C)NC(=O)CNC(=O)[C@H](Cc1ccccc1)NC(=O)[C@H](CC(N)=O)NC(=O)[C@@H]1CCCN1C(=O)[C@H](CO)NC(=O)[C@H](CO)NC(=O)[C@H](Cc1c[nH]cn1)NC(=O)[C@H](CCCNC(=N)N)NC(=O)[C@H](CC(C)C)NC(=O)[C@H](Cc1ccccc1)NC(=O)[C@H](CC(N)=O)NC(=O)[C@H](C)NC(=O)[C@H](CC(C)C)NC(=O)[C@H](CCCNC(=N)N)NC(=O)[C@H](CCC(N)=O)NC(=O)[C@@H](NC(=O)[C@H](C)NC(=O)[C@@H]1CSSC[C@H](NC(=O)[C@@H](N)CCCCNC(=O)CC[C@H](NC(=O)CC[C@H](NC(=O)CCCCCCCCCCCCCCCCCCC(=O)O)C(=O)O)C(=O)O)C(=O)N[C@@H](CC(N)=O)C(=O)N[C@@H]([C@@H](C)O)C(=O)N[C@@H](C)C(=O)N[C@@H]([C@@H](C)O)C(=O)N1)[C@@H](C)O)C(=O)N1CCC[C@H]1C(=O)N[C@@H](CO)C(=O)N[C@@H](CO)C(=O)N[C@H](C(=O)N[C@@H](CC(N)=O)C(=O)N[C@H](C(=O)NCC(=O)N[C@@H](Cc1c[nH]cn1)C(=O)N[C@@H](CC(N)=O)C(=O)N[C@H](C(=O)N[C@@H](Cc1ccc(O)cc1)C(N)=O)[C@@H](C)O)C(C)C)[C@@H](C)O, also called compound 86) | 159 | 0.833 nM | 133 nM
{C20 diacid-γGlu}-GRCNTATCATQRLAHFLRHSSPNFGAIPSSTNVGHNTY-NH2 (disulfide 3-8; SMILES CC[C@H](C)[C@H](NC(=O)[C@H](C)NC(=O)CNC(=O)[C@H](Cc1ccccc1)NC(=O)[C@H](CC(N)=O)NC(=O)[C@@H]1CCCN1C(=O)[C@H](CO)NC(=O)[C@H](CO)NC(=O)[C@H](Cc1c[nH]cn1)NC(=O)[C@H](CCCNC(=N)N)NC(=O)[C@H](CC(C)C)NC(=O)[C@H](Cc1ccccc1)NC(=O)[C@H](Cc1c[nH]cn1)NC(=O)[C@H](C)NC(=O)[C@H](CC(C)C)NC(=O)[C@H](CCCNC(=N)N)NC(=O)[C@H](CCC(N)=O)NC(=O)[C@@H](NC(=O)[C@H](C)NC(=O)[C@@H]1CSSC[C@H](NC(=O)[C@H](CCCNC(=N)N)NC(=O)CNC(=O)CC[C@H](NC(=O)CCCCCCCCCCCCCCCCCCC(=O)O)C(=O)O)C(=O)N[C@@H](CC(N)=O)C(=O)N[C@@H]([C@@H](C)O)C(=O)N[C@@H](C)C(=O)N[C@@H]([C@@H](C)O)C(=O)N1)[C@@H](C)O)C(=O)N1CCC[C@H]1C(=O)N[C@@H](CO)C(=O)N[C@@H](CO)C(=O)N[C@H](C(=O)N[C@@H](CC(N)=O)C(=O)N[C@H](C(=O)NCC(=O)N[C@@H](Cc1c[nH]cn1)C(=O)N[C@@H](CC(N)=O)C(=O)N[C@H](C(=O)N[C@@H](Cc1ccc(O)cc1)C(N)=O)[C@@H](C)O)C(C)C)[C@@H](C)O, 38 residues; also called compound 100) | 65.3 | 1.01 nM | 66.3 nM
K([γGlu-C14 diacid])CNTATCATQRLANFLRHSSPNFGAIPSSTNVGHNTY-NH2 (disulfide 2-7; N-terminus assumed; SMILES CC[C@H](C)[C@H](NC(=O)[C@H](C)NC(=O)CNC(=O)[C@H](Cc1ccccc1)NC(=O)[C@H](CC(N)=O)NC(=O)[C@@H]1CCCN1C(=O)[C@H](CO)NC(=O)[C@H](CO)NC(=O)[C@H](Cc1c[nH]cn1)NC(=O)[C@H](CCCNC(=N)N)NC(=O)[C@H](CC(C)C)NC(=O)[C@H](Cc1ccccc1)NC(=O)[C@H](CC(N)=O)NC(=O)[C@H](C)NC(=O)[C@H](CC(C)C)NC(=O)[C@H](CCCNC(=N)N)NC(=O)[C@H](CCC(N)=O)NC(=O)[C@@H](NC(=O)[C@H](C)NC(=O)[C@@H]1CSSC[C@H](NC(=O)[C@@H](N)CCCCNC(=O)CC[C@H](NC(=O)CCCCCCCCCCCCC(=O)O)C(=O)O)C(=O)N[C@@H](CC(N)=O)C(=O)N[C@@H]([C@@H](C)O)C(=O)N[C@@H](C)C(=O)N[C@@H]([C@@H](C)O)C(=O)N1)[C@@H](C)O)C(=O)N1CCC[C@H]1C(=O)N[C@@H](CO)C(=O)N[C@@H](CO)C(=O)N[C@H](C(=O)N[C@@H](CC(N)=O)C(=O)N[C@H](C(=O)NCC(=O)N[C@@H](Cc1c[nH]cn1)C(=O)N[C@@H](CC(N)=O)C(=O)N[C@H](C(=O)N[C@@H](Cc1ccc(O)cc1)C(N)=O)[C@@H](C)O)C(C)C)[C@@H](C)O) [N^ε1-[(4S)-4-carboxy-4-(13-carboxytridecanoylamino)butanoyl]-[Arg17,Pro21,Pro27,His34]-h-amylin] | 23.5 | 1.04 nM | 24.3 nM
